T1: cynomolgus monkey FcγRIIIaS extracellular domain, His-tagged (cynomolgus monkey, UniProt Q8SPW2 21-206 at identity 1.00))
T1 construct: also called cyno FcγRIIIaS; cynoFcγRIIIaS; not shown: C-terminal His-tag
T1 chain: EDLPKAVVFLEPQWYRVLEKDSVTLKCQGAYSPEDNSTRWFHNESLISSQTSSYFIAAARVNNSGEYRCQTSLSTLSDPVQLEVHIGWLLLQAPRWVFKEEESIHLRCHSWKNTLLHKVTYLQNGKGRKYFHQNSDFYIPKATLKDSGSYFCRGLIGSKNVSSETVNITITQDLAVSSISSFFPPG

T2: cynomolgus monkey FcγRIIa1 extracellular domain, His-tagged (cynomolgus monkey)
T2 construct: also called cyno FcγRIIa1; cynoFcgRIIa1; not shown: C-terminal His-tag
T2 chain: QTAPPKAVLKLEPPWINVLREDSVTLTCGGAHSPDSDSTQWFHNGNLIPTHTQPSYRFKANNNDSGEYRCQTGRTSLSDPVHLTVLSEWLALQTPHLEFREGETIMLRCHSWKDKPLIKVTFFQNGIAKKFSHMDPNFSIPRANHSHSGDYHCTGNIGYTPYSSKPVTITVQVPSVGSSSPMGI

T3: human FcγRIIaH extracellular domain, His-tagged (human, UniProt P12318 34-217)
T3 construct: also called human FcγRIIa (type H); FcgRIIaH; not shown: C-terminal His-tag
T3 sequence: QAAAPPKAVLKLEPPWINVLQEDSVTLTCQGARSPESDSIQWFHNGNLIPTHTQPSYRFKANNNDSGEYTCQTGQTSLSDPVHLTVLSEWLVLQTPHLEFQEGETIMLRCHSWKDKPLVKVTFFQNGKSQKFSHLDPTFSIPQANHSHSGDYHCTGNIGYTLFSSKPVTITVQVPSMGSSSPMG

T4: cynomolgus monkey FcγRIIa3 extracellular domain, His-tagged (cynomolgus monkey)
T4 construct: also called cyno FcγRIIa3; cynoFcgRIIa3; not shown: C-terminal His-tag
T4 chain: T2 chain with P95T, T121A, A128S, H133P, D135N

T5: cynomolgus monkey FcγRIIb extracellular domain, His-tagged (cynomolgus monkey)
T5 construct: also called cyno FcγRIIb; cynoFcγRIIb; not shown: C-terminal His-tag
T5 chain: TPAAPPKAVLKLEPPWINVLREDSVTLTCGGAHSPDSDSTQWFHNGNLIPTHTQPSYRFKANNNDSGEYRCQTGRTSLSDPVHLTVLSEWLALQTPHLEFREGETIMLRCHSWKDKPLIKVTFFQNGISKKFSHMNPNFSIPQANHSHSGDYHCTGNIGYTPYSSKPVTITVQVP

T6: human FcγRIIaR extracellular domain, His-tagged (human, UniProt P12318 34-217)
T6 construct: also called human FcγRIIa (type R); FcgRIIaR; not shown: C-terminal His-tag
T6 chain: T3 sequence with H134R

T7: cynomolgus monkey FcγRIIa2 extracellular domain, His-tagged (cynomolgus monkey)
T7 construct: also called cyno FcγRIIa2; cynoFcgRIIa2; not shown: C-terminal His-tag
T7 chain: T2 chain with P95T, T121A, I127K, A128S, K130N, D135N, R142Q

B1: MS_M103205H795-SG1/M103202L889-SK1 (antibody, human IgG1, kappa)
heavy: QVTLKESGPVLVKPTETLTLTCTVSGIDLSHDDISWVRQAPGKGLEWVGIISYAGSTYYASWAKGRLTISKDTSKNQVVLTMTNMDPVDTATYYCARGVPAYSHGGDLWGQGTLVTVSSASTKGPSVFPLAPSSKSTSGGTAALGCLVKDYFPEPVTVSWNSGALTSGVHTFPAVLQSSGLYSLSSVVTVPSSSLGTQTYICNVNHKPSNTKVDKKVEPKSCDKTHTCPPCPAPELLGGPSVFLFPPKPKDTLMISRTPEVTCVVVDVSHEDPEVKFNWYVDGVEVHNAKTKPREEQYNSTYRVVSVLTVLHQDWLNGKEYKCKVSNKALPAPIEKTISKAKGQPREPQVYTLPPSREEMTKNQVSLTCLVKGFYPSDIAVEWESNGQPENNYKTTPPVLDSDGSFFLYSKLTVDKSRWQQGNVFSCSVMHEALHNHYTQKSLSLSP
light: DIVMTQSPATLSLSPGERATLSCTSSQSVYHANWLSWFQQKPGQPPKLLIYWASTLAYGVPSRFSGSGSGTDFTLTISSLQPEDAATYYCAGGYGGGRYAFGQGTKVEIKRTVAAPSVFIFPPSDEQLKSGTASVVCLLNNFYPREAKVQWKVDNALQSGNSQESVTEQDSKDSTYSLSSTLTLSKADYEKHKVYACEVTHQGLSSPVTKSFNRGEC
notes: Parent antibody with heavy chain constant region SG1; also called MS1032LO06-SG1; copies: 2 + 2
B2: M103205H795-MY444/M103202L889-SK1 (antibody, human IgG1, kappa)
heavy: QVTLKESGPVLVKPTETLTLTCTVSGIDLSHDDISWVRQAPGKGLEWVGIISYAGSTYYASWAKGRLTISKDTSKNQVVLTMTNMDPVDTATYYCARGVPAYSHGGDLWGQGTLVTVSSASTKGPSVFPLAPSSKSTSGGTAALGCLVKDYFPEPVTVSWNSGALTSGVHTFPAVLQSSGLYSLSSVVTVPSSSLGTQTYICNVNHKPSNTKVDKKVEPKSCDKTHTCPPCPAFELLTGPSVFLFPPKPKDTLMISRTPEVTCVVVDVSDEDPEVKFNWYVDGVEVHNAKTKPREEQYNSTYRVVSVLTVLHQDWLNGKEYKCKVSNKALPKPIEKTISKAKGQPREPQVYTLPPSREEMTKNQVSLTCLVKGFYPSDIAVEWESNGQPENNYKTTPPVLDSDGSFFLYSKLTVDKSRWQQGNVFSCSVMHEALHNHYTQKSLSLSP
light: B1 light
notes: copies: 2 + 2
B3: M103205H795-MY460/M103202L889-SK1 (antibody, human IgG1, kappa)
heavy: B2 heavy with A233E, F234P
light: B1 light
notes: copies: 2 + 2
B4: M103205H795-MY442/M103202L889-SK1 (antibody, human IgG1, kappa)
heavy: B2 heavy with F234D
light: B1 light
notes: copies: 2 + 2
B5: M103205H795-MY265/M103202L889-SK1 (antibody, human IgG1, kappa)
heavy: B2 heavy with F234P
light: B1 light
notes: also called MS103205H795-MY265; copies: 2 + 2
B6: M103205H795-MY445/M103202L889-SK1 (antibody, human IgG1, kappa)
heavy: B2 heavy with F234G
light: B1 light
notes: copies: 2 + 2
B7: M103205H795-MY446/M103202L889-SK1 (antibody, human IgG1, kappa)
heavy: B2 heavy with F234H
light: B1 light
notes: copies: 2 + 2
B8: M103205H795-MY459/M103202L889-SK1 (antibody, human IgG1, kappa)
heavy: B2 heavy with A233D, F234P
light: B1 light
notes: copies: 2 + 2
B9: M103205H795-MY441/M103202L889-SK1 (antibody, human IgG1, kappa)
heavy: B2 heavy with F234A
light: B1 light
notes: copies: 2 + 2
B10: M103205H795-MY448/M103202L889-SK1 (antibody, human IgG1, kappa)
heavy: B2 heavy with F234K
light: B1 light
notes: copies: 2 + 2
B11: M103205H795-MY447/M103202L889-SK1 (antibody, human IgG1, kappa)
heavy: B2 heavy with F234I
light: B1 light
notes: copies: 2 + 2
B12: M103205H795-MY443/M103202L889-SK1 (antibody, human IgG1, kappa)
heavy: B2 heavy with F234E
light: B1 light
notes: copies: 2 + 2

Changes are numbered by the printed parent chain.

The target in the first test is T1, cynomolgus monkey FcγRIIIaS …. Description: SPR (BIACORE), captured antibody, FcgR as analyte. The procedure:
(§1) The kinetic analysis of interactions between these antibodies and FcγR was carried out using BIACORE® T200 or BIACORE® 4000 (GE Healthcare). HBS-EP+ (GE Healthcare) was used as the running buffer, and the measurement temperature was set to 25° C. A chip produced by immobilizing Protein A. Protein A/G or mouse anti-human IgG kappa light chain (BD Biosciences) onto a Series S Sensor Chip CM4 or CM5 (GE Healthcare) by the amine-coupling method was used. […] After the measurement, the antibody captured on the chip was washed off by allowing reaction with 10 mM glycine-HCl, pH1.5 and 25 mM NaOH so that the chip was regenerated and used repeatedly. The sensorgrams obtained as measurement results were analyzed by the 1:1 Langmuir binding model using the BIACORE® Evaluation Software to calculate the binding rate constant ka (L/mol/s) and dissociation rate constant kd (l/s), and the dissociation constant KD (mol/L) was calculated from these values. […] Regarding such interactions, KD values were calculated using the following 1:1 binding model described in BIACORE® T100 Software Handbook BR1006-48 Edition AE.
As for B1, binding was characterised by a dissociation constant (Kd) of 360 nM.
Still for that read-out and setting: with B2 the figure was 1600 nM; with B3, 2700 nM; with B4, 2100 nM.
Same read-out and setting: for B5 the value was 2000 nM.
Same read-out and setting: for B6 the value was 3500 nM.
In the case of B7, binding was put at a Kd of 2900 nM.
B8 yielded a Kd of 3200 nM.
Consider B9, for which the affinity, expressed as Kd, was 2600 nM.
The same measure, in the same setting: for B10 the value was 6500 nM.
Still for that read-out and setting: for B11 the value was 1100 nM; for B12, 2600 nM.

In another test the target is T2, cynomolgus monkey FcγRIIa1 …. Description: SPR (BIACORE), captured antibody, FcgR as analyte. The procedure:
as §1
Molecule B1 gave a Kd of 3.2 µM.
Same read-out and setting: with B2 the figure was 1.2 µM; with B3, 3.1 µM.
Turning to B4, the Kd came out at 4.4 µM.
B5 displayed a Kd of 2.2 µM.
Same read-out and setting: for B6 the value was 5.6 µM.
The same measure, in the same setting: for B7 the value was 2.5 µM; for B8, 5 µM.
The same measure, in the same setting: with B9 the figure was 3.8 µM; with B10, 9.6 µM.
Turning to B11, binding was characterised by a dissociation constant (Kd) of 0.99 µM.
For the molecule B12, the equilibrium dissociation constant (Kd) stood at 4.8 µM.

The target of a further test is T3, human FcγRIIaH extracellular domain, …. Description: SPR (BIACORE), captured antibody, FcgR as analyte. The procedure: as §1
B1 registered an equilibrium dissociation constant (Kd) of 690 nM.
For the molecule B2, the Kd stood at 110 nM.
B3 yielded a dissociation constant Kd of 260 nM.
The same measure, in the same setting: with B4 the figure was 460 nM.
The same measure, in the same setting: for B5 the value was 210 nM.
In turn, B6 showed a dissociation constant (Kd) of 560 nM.
Still for that read-out and setting: for B7 the value was 260 nM; for B8, 390 nM; for B9, 360 nM.
On the same count and under the same terms, for B10 the value was 930 nM; for B11, 97 nM.
On the same count and under the same terms, for B12 the value was 530 nM.

The target of the next test is T4, cynomolgus monkey FcγRIIa3 …. Description: SPR (BIACORE), captured antibody, FcgR as analyte. The procedure:
as §1
The molecule B1 registered a Kd of 17 µM.
On the same count and under the same terms, with B2 the figure was 1.9 µM; with B3, 5.5 µM.
Regarding B4, the affinity, expressed as Kd, was 6.8 µM.
Still for that read-out and setting: with B5 the figure was 4.8 µM; with B6, 14 µM; with B7, 4.7 µM.
Still for that read-out and setting: with B8 the figure was 7.5 µM; with B9, 8 µM.
Still for that read-out and setting: for B10 the value was 21 µM.
As to B11, the Kd is 1.05 µM.
Same read-out and setting: with B12 the figure was 8.8 µM.

Another test has as its target T5, cynomolgus monkey FcγRIIb extracellular …. Description: SPR (BIACORE), captured antibody, FcgR as analyte. As for the experimental part:
as §1
Take B1: the Kd amounted to 1800 nM.
Regarding B2, binding was put at a Kd of 300 nM.
The same measure, in the same setting: for B3 the value was 790 nM; for B4, 1100 nM.
In turn, B5 displayed a Kd of 590 nM.
Still for that read-out and setting: for B6 the value was 1400 nM; for B7, 630 nM; for B8, 1100 nM.
In turn, B9 came in with a dissociation constant Kd of 880 nM.
Still for that read-out and setting: for B10 the value was 2300 nM; for B11, 230 nM.
Still for that read-out and setting: with B12 the figure was 1200 nM.

For another test, the target named is T6, human FcγRIIaR extracellular domain, …. Description: SPR (BIACORE), captured antibody, FcgR as analyte. As for the experimental part:
as §1
In the case of B1, the Kd was found to be 1100 nM.
The same measure, in the same setting: for B2 the value was 140 nM; for B3, 550 nM; for B4, 420 nM.
Still for that read-out and setting: with B5 the figure was 440 nM; with B6, 1200 nM.
On to B7, for which the equilibrium dissociation constant (Kd) was determined as 480 nM.
The molecule B8 showed an equilibrium dissociation constant (Kd) of 560 nM.
Molecule B9 yielded a dissociation constant (Kd) of 650 nM.
Molecule B10 yielded a Kd of 2200 nM.
Still for that read-out and setting: for B11 the value was 98 nM.
Same read-out and setting: with B12 the figure was 640 nM.

Another test addresses T7, cynomolgus monkey FcγRIIa2 …. Description: SPR (BIACORE), captured antibody, FcgR as analyte. The procedure:
as §1
B1 gave a Kd of 5.1 µM.
On the same count and under the same terms, with B2 the figure was 1.1 µM; with B3, 3.1 µM; with B4, 4.2 µM.
On the same count and under the same terms, with B5 the figure was 1.9 µM; with B6, 5.5 µM.
Still for that read-out and setting: for B7 the value was 2.2 µM; for B8, 4.7 µM.
As to B9, binding was put at a Kd of 3.3 µM.
Still for that read-out and setting: with B10 the figure was 7.5 µM; with B11, 0.88 µM; with B12, 5 µM.

Values taken from patent US20200317768A1 (published 2020).
